For 19 sequences, protein production results are on record in a protein production outcome set (Wang et al. 2014).

This data set in a line: label from the status in PepcDB records.
“MGVKVATSSTFHQWVAHPIVHHSSSLSQTLASSAVSSPSRRRIIGNDGRSSLSCRSVMQSQRLNPSSPFGTSSTNLRHSKSCELWESTKRPKTQLIRRAFSANVDPFSEEEFAKKMQELTLKFQVSNEEEDNESDTRIDDYTRKMDIVGSHNNFRSDSMEPPWPEMVQMSNIERKANSVDLPLSLRIIKRKLQMEEGVLNQVGESACCSVKKAFSSMVFMIRELQSFTLHMRELLLFEDLQGILHRVRKEMQASFVWLFQQVFSATPTLMVSVMILLANFTVYSIESNSALAAAVSPPTTLSFSFETTAEISETQETNQKFDSSMVKTFSVSSPYGKTSFVGGGGGNNIPPPVQSGTDGDGSDQFRKSQFSSSSLGATSADSDVSVSGQEEIRLWNSILEETAKMETLDHETMKGMVSPVEARLEAEESMDYFKTELLYQTGLSQEPGNVLLLANYAQFLYLIIHDYDRAEKYFKRAAKAEPADAEALNKYATFLWRARNDIWRAEETYLEAISADPTNSVYSANYAHFLWNTGGDETCFPLDAPSQQNNTT”: the protein production entry was “failed”.
Regarding “MGVVERAIAPSVLAALADTPVVVVNGARQVGKTTLVARLDYPGSSEVVSLDDVANRDAARDDPRAFVSRPVDTLVIDEAQLEPGLFRAIKAEVDRDRRPGRFLLTGSARLLSAPDMADALVGRVEIIELWPFSQGERAGIADGFVDALFTAPRELIHGSDMRRADLVDRIATGGFPDIVARSPSRRRAWFDNYLTTATQSVIREISPIERLAEMPRVLRLCAARTGAELNVSALANDLSIPARTTAGYLALLEAAFLIHRVPAWSTNLSRKVIRRPKLVVSDSGLACHLLGVTGATLDRPGRPLGPLLETFVANEIRKQLTWSTERPSLWHFRDRGGAEVDLVLEHPDGRVCGIEVKATSTPRAEDLRGLRYLAERLDDRFQFGVLLTAAPEATPFGPTLAALPVSTLWAG”, the protein production entry is “failed”.
Regarding “MGVYPPSEDSFLIIEYASCSGKAIEIGCGTGIVSICFLKRGCDIEAVDISDLAVECAKDNASRNGLTLKVYRSDLFSGVSGTYDTILFNAPYIPVEGEDASWSGGRNLEVVSRFLGQAREHLSASGQIYIVLSDLTDNEGMFRMMGYDYFIIKKISFEFEAIVLYKLTLKALEHHHHHH”, the protein production result is reported as “failed”.
As to “MGYLKNHWWKRWIRRRGCKLAGGPASVGKRTTLVLEERVELGHLRIVPPRLEIGAYSYVRSGTDLSLVASIGRFCSIGSDCFIGQEKHTHPSDWVSSHPFQHTGTALRYEPALSYAEIGHDVWIGHSAMVMEGVKVGTGAIIATRAVVTRDVPPYAIVAGTPAQVIRYRHPPEIIEGLLASRWWELDSAFLTGLPLDRPREFLAALEAREAPRAAYRRMTITRQGCRLDLEHHHHHH”, the protein production entry is on record as “failed”.
Consider “MHAINFIQDLAVIMLVAGVVTILFHRLRQPVVLGYIVAGFIIGPHTPPVSLIHDEDTIKILAELGVIFLMFCLGLEFSLRKLFKVGATAFIAAFLEIALMIWIGYEIGQFFGWKTMDSLFLGAILAISSTTIIVKALNDLKMKNQHFAQLIFGVLIVEDILGIGIIALLSGIAVSGSVSSGEVFSTVGKLSLFMIVALVVGILLVPRLLSYVARFDSNEMLLITVLGLCFGFCLLVVKLEYSMVLGAFLIGAIMAESRELLKIERLIEPIRDMFSAIFFVAIGLMIDPKILLEYAWPIAVITVAVVLGKMISCGLGAFIAGNDGRTSLRVGMGLSQIGEFSFIIAALGMTLQVTSDFLYPVAVAVSAITTLLTPYLIRGADPLSLKLAAIMPRRVARVFGMYGEWLRSIQPQGQSAVLAGMIRRILLQVGVNLALVMAIFFSGGYFAERLGGYMDEWVADVSHQKAWICGAALLLSLPFLIAAYRKLKALSMLLAEMGVKPEMAGRHTVRVRKVVAEVIPLLSLVVIFVMLAALSASILPANELLLVVVLVAALVAALLWRWLIRVHTRMQIALLETLGNNQESSGH”, for which the protein production entry is on record as “failed”.
As to “MHALPGIRTLFLGMPSSTRSPETAVPRILTSRTDVTERSEHNALMFGSPKERWDFYRREIQYDTSILANRTDAYLAAQSFLVIAFASSMSNLNPEWGGLFTLLVPPFLALLCILTTLNAWPGIRAAYDIIDQWYFKQVQLLLAYDESPLFCESESTHKSYRKSLPFSLRAP”, the protein production result is recorded as “failed”.
With “MHAPDALPGCAPVSPAPGYHGAPAVAGHAPTLGVTASMSSITLFQAPPPEAIQSQIQQMVVDYITDVSAVAIAPSNPLYNLYQYGVGYEVHLYLQAMDGSRGIAVELVVATDPQAPDQVLGFTLYLPVKDDPQACAVAYMAVLQGHRRQGIARQMLQAMLARYPHAELACNVAKVGCFEALGFQLLGARGPQVLMNTRDHGSDGLLAVLDVVTIYQSVEVRQIHTYLLAQHGRKAMLEAEKKRDRQLDQMTRQAQALVRERLGEAALYRSRAPQLIN”, the protein production result was “failed”.
For “MHCVFLEFNMSVFKKIYFALSAFIVAPHIFLLMSSRHDNPIFRDIEVWSEKLLGKKISGRSGLVASVVELLSLAPEFRNLFYYRVPRARFFKFLSRPENTLHIHTRTIGPGFFIQHGFATIISAESIGADCWINQQVTIGYVDSTGAPKIGDNVTINAGAKVLGNIVIGDNAKVGANAVVVKNIPADCVVVGVPARIIRRAGARVDEAL”, the protein production entry is listed as “failed”.
In the case of “MHDATDSLPLCMTRPTRFRWVWWLLAYASLATGIVGIFVPGLPTTVLILNLRLGRLTWLRSRLHYWLLSHPRFGPAIVEWQTYRAVSRKAKWMATLTMSICAAIMLWCVPVFWVKCLSIGSMAVVAIWLWLRPEPPPRPLPAAH” it was “failed”; in that of “MHEDRKRRRGKLRTAVHFKAPRRARFSRFPLFPRLNPMPAAPTDAHAALPIALRDLIRLHAPQATLLAAIGQRILNIQAEGAPTEEAQLVPPDDWLEHGDLAWITRDGALLGLLWSDGAPVPDGAVQVLTLLLSAASAEGASREADMLITQLPAATAWLSAELEFRQVSRTFLELFGLTGADVLGRTVHEVFPDHAALAQQLDSAAAGRAVQLGDERVPSLPGHSGERWLRGSARPYFGGAAAGVLWTVQDVSTEHTQTTQFAALLGTDLPLALLGPGGAVQGASRGMRQLLGEPEDLAEAQAHPQRPLHEWPCWAPAGARLLQDLIQSAEAGRPSPVPSEIALARGGQLPLLVRRSDTVPGLLLAEGVRPAAVSEDNGAARLLHLSGAATILLDPQGRVQLISEPAARLLGFDPHNIALTGLPLPRLHQQLGIKLHTPQGNPLTVPPLSALTLPHNGEVLAVLPGGVTRHLEISLSALPGSGQSTGSSAASPGRSAAPELLLSLRDVTTLRRAQAKLRHDASHDGLTGLLNRSGLRAALGQATAAQTGGMVACLDIDGFGGLNAALSRTAGDLLLIQVAARLNDLAELEGGQAARLADDTFAVYLPQLGAAVGGQKLQAALREPLRTGKRLVPVTFSLGAAPLLAAAPEQALADAEVALQHARRQGRGQLTVFEPDMRAEEAQTFELEDQLRAVLDRGLQHEQFSLLYQPAVSLKDGRVLGAEALLRWTHPELGNVSPARFLPLAQRSDLITSIGEWVVREAVQGRTQLRDATGQRNWRTSVNLSLEELRREGAIERLLPLITRPSALDIEVSASSLLDHSEETLGLLDALRARGARLIVDDFGDGASSLTALTQFPLYGVKLHPTLTTRLPGDQKSLKLVQGTVSLAHSLGLTVTAVGVETYAQLDMLRDLGCDAAQGYALTPPLSAGDLVTWVQGR”, “failed”; in that of “MHEIAPLSPAAAALADFQPDRGPAALNGAAVFCGFAPRPLDDGFTWADFGCGLGITASILAAANPQGRFFAIDADGQALAAGRALAKAAFLDNLTFLQADYTKPHDLDLPPLDFAVLGNVLCWLDGQERQALLSRLGTLLKPGGIVLATYDALPGAAALVPLRDLLFSVTAGQAANPVARARAAIDWLGAMRAAGIDFFRDNPALGPRLDALIERGPQALAGRFFGGTLRPLHFAQVNAEMAAQGLTFAGRAEAFLNLIDLAVPAALRPRLRAATSRAEVEATRDFIRNEDHRRDLYIKGAAPSDGAALTAFDDGRILGPAAAPGQANPEVSFGAVSLSFRGALFESLLAALDLGPRPVGELCASAALEGVPPGLIRDGLRLLTAGGLARPYARAADVAPAAPPVWPLRLPHPLNRALALTLGLGGPTVALASKVLGDGVVMDNRDALLLVALCDAGPEGAVERALAILADQAIPCGPATTQALTDRLSPLITDILPWLRVLGVVEG”, “failed”.
The same measure for “MHEKLLTLCDCAFEARLIELEMRVSFQEQALTEISEALAETRLIGARNAELMRHLLEELGKVRNTLYEHPIDEPPPHY”: “failed”.
The same measure for “MHEQLSPRDQELEARLVELETRLSFQEQALTELSEALADARLTGARNAELIRHLLEDLGKVRSTLFADAADEPPPPHY”: “not failed”; for “MHETKVKLSNGLELHVEVGGNPDHPTILLIMGLGAQMLFWPDFFCKSLIDQGFYVIRFDNRDIGLSSKIRHKGKRLNTLKLMSRFTLGLGNQGAPYTLYDMAEDVSLLLEAMRIKKVNVIGASMGGMIAQIIAAKYPEKVEKLALMFTSNNQPLLPPPFPKQLFSLIGKPKSSDEDGIINHSLKLFEIIGSPGYVNQVEAIQTARKLYQRSYHPAGVLQQFLAILCTGSLLQLDKQISQPTLVIHGSRDRLLPPSHGKAVAKAIKGAKFELIQGMGHDIPPHFIPQLSYLFAHHFRS”: “failed”; for “MHGAEHLLEIFYLLLAAQVMAFIFKRLNQPVVIGEVLAGVLVGPALLGLVHEGEILEFLAELGAVFLLFMVGLETRLKDILAVGKEAFLVAVLGVALPFLGGYLYGLEIGFETLPALFLGTALVATSVGITARVLQELGVLSRPYSRIILGAAVIDDVLGLIVLAVVNGVAETGQVEVGAITRLIVLSVVFVGLAVFLSTLIARLPLERLPVGSPLGFALALGVGMAALAASIGLAPIVGAFLGGMLLSEVREKYRLEEPIFAIESFLAPIFFAMVGVRLELSALASPVVLVAGTVVTVIAILGKVLGGFLGALTQGVRSALTVGVGMAPRGEVGLIVAALGLKAGAVNEEEYAIVLFMVVFTTLFAPFALKPLIAWTERERAAKE”: “failed”.
On to “MHGHGGYDSDFSDDEHCGESSKRKKRTVEDDLLLQKPFQKEKHGKVAHKQVAAELLDREEARNRRFHLIAMDAYQRHRKFVNDYILYYGGKKEDFKRLGENDKTDLDVIRENHRFLWNEEDEMDMTWEKRLAKKYYDKLFKEYCIADLSKYKENKFGFRWRVEKEVISGKGQFFCGNKYCDKKEGLKSWEVNFGYIEHGEKRNALVKLRLCQECSIKLNFHHRRKEIKSKKRKDKTKKDCEESSHKKSRLSSAEEASKKKDKGHSSSKKSEDSLLRNSDEEESASESELWKGPLPETDEKSQEEEFDEYFQDLFL”, for which the protein production entry is “not failed”.
“MHGTNPVPKLPKKIPMQADPNAAPPALDDETLAFAARLFQYARMGHAEELAELFGQGLPANLRNDKGDSLLMLAAYNGQAATARVILEAGGDPELANDRGQTPLAGAAFKGDADIVRLLLEHGAQVDGAGDGTRTALMVAAMFDRTEIVDLLLAQGADPSRRDASGMSAADMARQMGAQNTPAQLERAQGDRAG”: the protein production result is listed as “failed”.
On to “MHHQRKTHVDNNIAAVELAKAYRLLNHGPTVLVSARSQGIDNVMAAAWCCALDFAPPKLTVVLDKMTKTREFIEQSGMFVIQVPTVAQLQLTHRVGSQSLADDANKLLNCGVELFEMAGHDLPFVAGCSAWLACKLIPEPNNQLQYDLFIAEVIGAWADTQVFNHGHWHFDTAPADKRSLHYIAGGQFYAIGESFNAD”, for which the protein production result is recorded as “not failed”.
In the case of “MHIIQRNPSTNLPEGPYSATSAVKDPSHLPMGHHICFSVPNFDSFLHSLKEKGIETFQKSLPDGKVKQVFFFDPDGNGLEVASRS” it was “failed”.
